Source: paper PMC3618588

Columns and labels:
[1] = target: His6-JAK2 JH1 (836-1132), phosphorylated (JAK2^pY1007/pY1008) (mouse) (UniProt Q62120)
[2] = target: His6-JAK2 JH1 (836-1132), phosphorylated (JAK2^pY1007/pY1008) (mouse) (UniProt Q62120); remark: listed apart in the source

Sequence of UniProt Q62120 (Q62120 836-1132): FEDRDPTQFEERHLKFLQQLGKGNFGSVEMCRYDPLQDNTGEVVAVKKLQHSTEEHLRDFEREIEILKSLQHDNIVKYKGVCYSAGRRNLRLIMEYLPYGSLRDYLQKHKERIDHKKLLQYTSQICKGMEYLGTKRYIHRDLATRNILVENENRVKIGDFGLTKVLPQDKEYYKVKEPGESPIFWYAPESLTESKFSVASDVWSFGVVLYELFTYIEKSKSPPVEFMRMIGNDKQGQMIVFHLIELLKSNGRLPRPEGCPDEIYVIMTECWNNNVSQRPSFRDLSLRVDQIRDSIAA

Substance	IC50^mutant/IC50^WT, inhibition of JAK2 JH1 kinase activity [1]	IC50 of inhibition of JAK2 kinase activity by the isolated peptide [2]
SOCS3 A50E / elonginBC complex (from UniProt O35718 22-225; Q15370 1-118; Q15369 1-112)	1.1 ratio to WT	
SOCS3 A50K / elonginBC complex (from UniProt O35718 22-225; Q15370 1-118; Q15369 1-112)	6 ratio to WT	
SOCS3 E30A / elonginBC complex (from UniProt O35718 22-225; Q15370 1-118; Q15369 1-112)	23 ratio to WT	
SOCS3 K23A / elonginBC complex (from UniProt O35718 22-225; Q15370 1-118; Q15369 1-112)	1.4 ratio to WT	
SOCS3 K28A / elonginBC complex (from UniProt O35718 22-225; Q15370 1-118; Q15369 1-112)	2.8 ratio to WT	
SOCS3 L22A / elonginBC complex (from UniProt O35718 22-225; Q15370 1-118; Q15369 1-112)	1.2 ratio to WT	
SOCS3 L22F / elonginBC complex (from UniProt O35718 22-225; Q15370 1-118; Q15369 1-112)	0.1 ratio to WT	
SOCS3 R77A / elonginBC complex (from UniProt O35718 22-225; Q15370 1-118; Q15369 1-112)	1.4 ratio to WT	
SOCS3 S26A / elonginBC complex (from UniProt O35718 22-225; Q15370 1-118; Q15369 1-112)	1 ratio to WT	
SOCS3 S27A / elonginBC complex (from UniProt O35718 22-225; Q15370 1-118; Q15369 1-112)	2.5 ratio to WT	
SOCS3 S29A / elonginBC complex (from UniProt O35718 22-225; Q15370 1-118; Q15369 1-112)	2 ratio to WT	
SOCS3 T24A / elonginBC complex (from UniProt O35718 22-225; Q15370 1-118; Q15369 1-112)	3.3 ratio to WT	
SOCS3 T52A / elonginBC complex (from UniProt O35718 22-225; Q15370 1-118; Q15369 1-112)	10 ratio to WT	
SOCS3 Y31A / elonginBC complex (from UniProt O35718 22-225; Q15370 1-118; Q15369 1-112)	6 ratio to WT	
SOCS3 Y47F / elonginBC complex (from UniProt O35718 22-225; Q15370 1-118; Q15369 1-112)	80 ratio to WT	
SOCS3^22-225 / elonginBC complex (wild type) (from UniProt O35718;Q15370;Q15369)	1 ratio to WT	
isolated KIR peptide from SOCS1		0.1 mM
